Measurements: patent US20250262210A1 (TRUSTEES OF COLUMBIA UNIVERSITY IN THE CITY OF NEW YORK, published 2025)

T1: LZTR1 R810W-FLAG (human, UniProt Q8N653 1-840)
T1 construct: Stably expressed in U87 cells by lentivirus; also called LZTR1-FLAG-R810W; LZTR1 RW; not shown: FLAG tag
T1 sequence (looked up): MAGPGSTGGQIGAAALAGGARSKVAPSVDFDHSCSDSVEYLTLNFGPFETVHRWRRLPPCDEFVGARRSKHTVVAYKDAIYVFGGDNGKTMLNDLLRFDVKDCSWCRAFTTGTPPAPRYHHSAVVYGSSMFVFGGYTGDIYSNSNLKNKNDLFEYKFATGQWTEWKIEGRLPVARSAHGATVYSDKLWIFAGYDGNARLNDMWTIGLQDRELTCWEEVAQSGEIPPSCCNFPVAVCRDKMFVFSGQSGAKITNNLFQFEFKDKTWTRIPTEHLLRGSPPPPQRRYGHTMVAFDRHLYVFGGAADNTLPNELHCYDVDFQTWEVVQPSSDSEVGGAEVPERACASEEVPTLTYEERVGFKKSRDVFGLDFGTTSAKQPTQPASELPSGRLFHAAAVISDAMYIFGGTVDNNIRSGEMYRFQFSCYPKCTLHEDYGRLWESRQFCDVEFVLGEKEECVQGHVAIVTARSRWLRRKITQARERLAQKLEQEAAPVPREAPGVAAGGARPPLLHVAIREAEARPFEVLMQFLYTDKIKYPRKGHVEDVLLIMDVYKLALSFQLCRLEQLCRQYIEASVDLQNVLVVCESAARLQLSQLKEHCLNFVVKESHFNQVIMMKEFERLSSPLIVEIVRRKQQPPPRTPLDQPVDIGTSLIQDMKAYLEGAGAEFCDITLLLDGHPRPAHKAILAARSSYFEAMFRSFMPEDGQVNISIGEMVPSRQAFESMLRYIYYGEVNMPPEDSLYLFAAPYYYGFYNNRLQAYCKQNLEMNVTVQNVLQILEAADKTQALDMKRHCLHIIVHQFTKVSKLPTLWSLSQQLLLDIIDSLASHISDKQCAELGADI

T2: LZTR1-FLAG (human, UniProt Q8N653 1-840)
T2 construct: Expressed in HEK 293T, HeLa or U87 cells; used as cell lysate; also called LZTR1 wild type-FLAG; LZTR1 WT; not shown: FLAG tag at the C-terminus
T2 sequence (looked up): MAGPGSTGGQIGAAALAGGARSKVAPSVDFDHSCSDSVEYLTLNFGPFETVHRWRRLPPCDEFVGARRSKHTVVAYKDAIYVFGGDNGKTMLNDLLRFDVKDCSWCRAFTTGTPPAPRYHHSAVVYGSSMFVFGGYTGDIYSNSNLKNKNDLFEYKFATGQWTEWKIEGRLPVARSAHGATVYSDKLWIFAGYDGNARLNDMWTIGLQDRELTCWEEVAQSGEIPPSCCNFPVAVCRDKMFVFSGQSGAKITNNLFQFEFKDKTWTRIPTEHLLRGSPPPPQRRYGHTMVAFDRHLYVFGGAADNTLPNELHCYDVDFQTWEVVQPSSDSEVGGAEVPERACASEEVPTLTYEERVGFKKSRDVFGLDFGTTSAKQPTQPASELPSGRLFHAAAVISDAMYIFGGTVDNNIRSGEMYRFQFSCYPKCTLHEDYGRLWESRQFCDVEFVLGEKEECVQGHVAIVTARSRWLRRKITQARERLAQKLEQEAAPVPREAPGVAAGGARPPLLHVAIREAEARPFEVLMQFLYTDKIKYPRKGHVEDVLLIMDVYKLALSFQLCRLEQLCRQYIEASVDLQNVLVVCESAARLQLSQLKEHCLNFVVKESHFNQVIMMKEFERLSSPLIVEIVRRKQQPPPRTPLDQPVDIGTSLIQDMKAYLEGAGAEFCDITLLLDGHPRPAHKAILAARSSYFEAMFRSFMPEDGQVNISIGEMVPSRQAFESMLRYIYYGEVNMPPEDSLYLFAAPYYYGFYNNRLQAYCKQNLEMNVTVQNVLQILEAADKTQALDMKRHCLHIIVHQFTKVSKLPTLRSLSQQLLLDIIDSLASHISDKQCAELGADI


Experiments:
LZTR1 R810W-FLAG = target: T1, LZTR1 R810W-FLAG; assay: IP/MS, LZTR1 R810W-FLAG, U87
Experimental: (§1) Lysates were immunoprecipitated with FLAG affinity matrix and eluted with FLAG peptide. […] Protein gel slices were excised and in-gel digestion performed as previously described (83), with minor modifications. Gel slices were washed with 1:1 A cetonitrile and 100 mM ammonium bicarbonate for 30 min then dehydrated with 100% acetonitrile for 10 min until shrunk. The excess acetonitrile was then removed and the slices dried in speed-vacuum at room temperature for 10 min. Gel slices were reduced with 5 mM DTT for 30 min at 56° C. in an air thermostat, cooled down to room temperature, and alkylated with 11 mM IAA for 30 min with no light. Gel slices were then washed with 100 mM of ammonium bicarbonate and 100% acetonitrile for 10 min each. Excess acetonitrile was removed and dried in a speed-vacuum for 10 min at room temperature and the gel slices were re-hydrated in a solution of 25 ng/μl trypsin in 50 mM ammonium bicarbonate for 30 min on ice and digested overnight at 37° C. in an air thermostat. Digested peptides were collected and further extracted from gel slices in extraction buffer (1:2 ratio by volume of 5% formic acid:acetonitrile) at high speed, shaking in an air thermostat. The supernatants from both extractions were combined and dried in a speed-vacuum. Peptides were dissolved in 3% acetonitrile/0.1% formic acid. Desalted peptides were injected in an EASY-Spray™ PepMap™ RSLC C18 50 cm×[…] column (Thermo Scientific) connected to an Orbitrap Fusion™ Tribrid™ (Thermo Scientific) as described in “Global ubiquitylation enrichment” section. The following modifications were used for protein identification and quantification: oxidation of methionine (M), acetylation of the protein N-terminus, and deamination for asparagine or glutamine (NQ). Results obtained from MaxQuant were assembled in Scaffold for data visualization.

LZTR1-FLAG = target: T2, LZTR1-FLAG; assay: IP/MS, LZTR1 wild type-FLAG, U87
Experimental: as §1

Binder	binding result (LZTR1 R810W-FLAG)	binding result (LZTR1-FLAG)
ATF6B (other, human, UniProt Q99941 2-703, looked up) AELMLLSEIADPTRFFTDNLLSPEDWGLQNSTLYSGLDEVAEEQTQLFRCPEQDVPFDGSSLDVGMDVSPSEPPWELLPIFPDLQVKSEPSSPCSSSSLSSESSRLSTEPSSEALGVGEVLHVKTESLAPPLCLLGDDPTSSFETVQINVIPTSDDSSDVQTKIEPVSPCSSVNSEASLLSADSSSQAFIGEEVLEVKTESLSPSGCLLWDVPAPSLGAVQISMGPSLDGSSGKALPTRKPPLQPKPVVLTTVPMPSRAVPPSTTVLLQSLVQPPPVSPVVLIQGAIRVQPEGPAPSLPRPERKSIVPAPMPGNSCPPEVDAKLLKRQQRMIKNRESACQSRRKKKEYLQGLEARLQAVLADNQQLRRENAALRRRLEALLAENSELKLGSGNRKVVCIMVFLLFIAFNFGPVSISEPPSAPISPRMNKGEPQPRRHLLGFSEQEPVQGVEPLQGSSQGPKEPQPSPTDQPSFSNLTAFPGGAKELLLRDLDQLFLSSDCRHFNRTESLRLADELSGWVQRHQRGRRKIPQRAQERQKSQPRKKSPPVKAVPIQPPGPPERDSVGQLQLYRHPDRSQPAFLDAIDRREDTFYVVSFRRDHLLLPAISHNKTSRPKMSLVMPAMAPNETLSGRGAPGDYEEMMQIECEVMDTRVIHIKTSTVPPSLRKQPSPTPGNATGGPLPVSAASQAHQASHQPLYLNHP	binds	binds
ATG13 (other, human, UniProt O75143 1-517, looked up) METDLNSQDRKDLDKFIKFFALKTVQVIVQARLGEKICTRSSSSPTGSDWFNLAIKDIPEVTHEAKKALAGQLPAVGRSMCVEISLKTSEGDSMELEIWCLEMNEKCDKEIKVSYTVYNRLSLLLKSLLAITRVTPAYRLSRKQGHEYVILYRIYFGEVQLSGLGEGFQTVRVGTVGTPVGTITLSCAYRINLAFMSTRQFERTPPIMGIIIDHFVDRPYPSSSPMHPCNYRTAGEDTGVIYPSVEDSQEVCTTSFSTSPPSQLSSSRLSYQPAALGVGSADLAYPVVFAAGLNATHPHQLMVPGKEGGVPLAPNQPVHGTQADQERLATCTPSDRTHCAATPSSSEDTETVSNSSEGRASPHDVLETIFVRKVGAFVNKPINQVTLTSLDIPFAMFAPKNLELEDTDPMVNPPDSPETESPLQGSLHSDGSSGGSSGNTHDDFVMIDFKPAFSKDDILPMDLGTFYREFQNPPQLSSLSIDIGAQSMAEDLDSLPEKLAVHEKNVREFDAFVETLQ	binds	binds

Next, values leading:

binding result (LZTR1 R810W-FLAG)	binding result (LZTR1-FLAG)	Binder
binds	binds	BRAT1 (other, human, UniProt Q6PJG6 1-821, looked up) MDPECAQLLPALCAVLVDPRQPVADDTCLEKLLDWFKTVTEGESSVVLLQEHPCLVELLSHVLKVQDLSSGVLSFSLRLAGTFAAQENCFQYLQQGELLPGLFGEPGPLGRATWAVPTVRSGWIQGLRSLAQHPSALRFLADHGAVDTIFSLQGDSSLFVASAASQLLVHVLALSMRGGAEGQPCLPGGDWPACAQKIMDHVEESLCSAATPKVTQALNVLTTTFGRCQSPWTEALWVRLSPRVACLLERDPIPAAHSFVDLLLCVARSPVFSSSDGSLWETVARALSCLGPTHMGPLALGILKLEHCPQALRTQAFQVLLQPLACVLKATVQAPGPPGLLDGTADDATTVDTLLASKSSCAGLLCRTLAHLEELQPLPQRPSPWPQASLLGATVTVLRLCDGSAAPASSVGGHLCGTLAGCVRVQRAALDFLGTLSQGTGPQELVTQALAVLLECLESPGSSPTVLKKAFQATLRWLLSSPKTPGCSDLGPLIPQFLRELFPVLQKRLCHPCWEVRDSALEFLTQLSRHWGGQADFRCALLASEVPQLALQLLQDPESYVRASAVTAMGQLSSQGLHAPTSPEHAEARQSLFLELLHILSVDSEGFPRRAVMQVFTEWLRDGHADAAQDTEQFVATVLQAASRDLDWEVRAQGLELALVFLGQTLGPPRTHCPYAVALPEVAPAQPLTEALRALCHVGLFDFAFCALFDCDRPVAQKSCDLLLFLRDKIASYSSLREARGSPNTASAEATLPRWRAGEQAQPPGDQEPEAVLAMLRSLDLEGLRSTLAESSDHVEKSPQSLLQDMLATGGFLQGDEADCY
binds	binds	CARS (other, human, UniProt P49589 2-748, looked up) ADSSGQQGKGRRVQPQWSPPAGTQPCRLHLYNSLTRNKEVFIPQDGKKVTWYCCGPTVYDASHMGHARSYISFDILRRVLKDYFKFDVFYCMNITDIDDKIIKRARQNHLFEQYREKRPEAAQLLEDVQAALKPFSVKLNETTDPDKKQMLERIQHAVQLATEPLEKAVQSRLTGEEVNSCVEVLLEEAKDLLSDWLDSTLGCDVTDNSIFSKLPKFWEGDFHRDMEALNVLPPDVLTRVSEYVPEIVNFVQKIVDNGYGYVSNGSVYFDTAKFASSEKHSYGKLVPEAVGDQKALQEGEGDLSISADRLSEKRSPNDFALWKASKPGEPSWPCPWGKGRPGWHIECSAMAGTLLGASMDIHGGGFDLRFPHHDNELAQSEAYFENDCWVRYFLHTGHLTIAGCKMSKSLKNFITIKDALKKHSARQLRLAFLMHSWKDTLDYSSNTMESALQYEKFLNEFFLNVKDILRAPVDITGQFEKWGEEEAELNKNFYDKKTAIHKALCDNVDTRTVMEEMRALVSQCNLYMAARKAVRKRPNQALLENIALYLTHMLKIFGAVEEDSSLGFPVGGPGTSLSLEATVMPYLQVLSEFREGVRKIAREQKVPEILQLSDALRDNILPELGVRFEDHEGLPTVVKLVDRNTLLKEREEKRRVEEEKRKKKEEAARRKQEQEAAKLAKMKIPPSEMFLSETDKYSKFDENGLPTHDMEGKELSKGQAKKLKKLFEAQEKLYKEYLQMAQNGSFQ
binds	binds	CCNB2 (other, human, UniProt O95067 1-398, looked up) MALLRRPTVSSDLENIDTGVNSKVKSHVTIRRTVLEEIGNRVTTRAAQVAKKAQNTKVPVQPTKTTNVNKQLKPTASVKPVQMEKLAPKGPSPTPEDVSMKEENLCQAFSDALLCKIEDIDNEDWENPQLCSDYVKDIYQYLRQLEVLQSINPHFLDGRDINGRMRAILVDWLVQVHSKFRLLQETLYMCVGIMDRFLQVQPVSRKKLQLVGITALLLASKYEEMFSPNIEDFVYITDNAYTSSQIREMETLILKELKFELGRPLPLHFLRRASKAGEVDVEQHTLAKYLMELTLIDYDMVHYHPSKVAAAASCLSQKVLGQGKWNLKQQYYTGYTENEVLEVMQHMAKNVVKVNENLTKFIAIKNKYASSKLLKISMIPQLNSKAVKDLASPLIGRS
